Assay results taken from the supplement of paper PMC10065799, “High-throughput profiling of sequence recognition by tyrosine kinases and SH2 domains using bacterial peptide display” (eLife, 2023).

Target: Hck (UniProt P08631)
Assay: phosphorylation enrichment, bacterial display (enrichment ratio); higher = better substrate or ligand; peptides without Tyr show the background
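Note: 11-residue human phosphosite peptides and single-mutation variants displayed on the E. coli surface, counted by deep sequencing, each peptide's frequency after selection divided by its frequency in the unselected input library; frequency after pTyr selection over input frequency; kinase dosed for 20-30% of maximal phosphorylation in three min.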

Chain of Hck (P08631 whole entry, looked up): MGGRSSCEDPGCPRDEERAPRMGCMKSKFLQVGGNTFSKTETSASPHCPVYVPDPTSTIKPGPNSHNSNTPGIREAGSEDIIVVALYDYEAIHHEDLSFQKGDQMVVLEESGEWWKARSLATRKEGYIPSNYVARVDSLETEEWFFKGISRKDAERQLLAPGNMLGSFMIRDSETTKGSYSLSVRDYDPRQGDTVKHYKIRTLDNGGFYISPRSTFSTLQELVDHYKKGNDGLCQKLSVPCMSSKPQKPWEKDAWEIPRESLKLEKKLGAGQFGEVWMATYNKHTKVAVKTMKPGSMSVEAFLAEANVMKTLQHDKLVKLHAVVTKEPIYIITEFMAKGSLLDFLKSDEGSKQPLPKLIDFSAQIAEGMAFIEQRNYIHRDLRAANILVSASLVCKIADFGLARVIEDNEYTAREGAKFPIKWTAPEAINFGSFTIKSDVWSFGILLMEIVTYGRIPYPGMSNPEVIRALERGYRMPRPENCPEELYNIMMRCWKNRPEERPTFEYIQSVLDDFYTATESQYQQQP

Sequence	phosphorylation enrichment
DDPRRYQKYGY [OAS1_Y362]	0.499
VAVVQYSGTGQ [COL6A1_Y878]	0.438
TVINKYQGKLF [HGD_Y249]	0.447
IEKLPYIDKWF [CPS1_Y872_T871P]	0.456
NRDNTYNPVSE [FGA_Y127_R129P]	0.658
QNTGVYYDLYG [PTPN11_Y62_D61V]	7.99
VKPENYRRPDI [VHL_Y175_L178P]	0.364
THEVRYISAGQ [SLCO4A1_Y77_V78I]	0.416
KLIMEYLPFGS [JAK2_Y931_YF]	0.424
ASMAKYYASGI [ACADSB_Y372_E376G]	0.434
NTEGGYRCICA [CRELD1_Y328]	0.538
GDEEDYEEIPG [EGFR_opt_E_2015]	0.527
NAPNSYGRRPI [CDKN2A_Y44]	0.757
EMTAEYACTRK [ACAD9_Y325]	0.627
VSRGRYRPEEC [B4GALT4_Y113_Q116E]	0.522
VIGRMYDFHVL [RPF2_Y109_YF]	0.6
VHNLDYYKMTT [FGFR3_Y647_K650M]	0.547
SREALYNETDP [CACNA1A_Y794_M797T]	0.739
LAAAGYDVKKN [H1-3_Y72_E75K]	0.288
ALEQKYWALGQ [MAP1A_Y1555]	0.875
TVDASYFGGRG [ANTXR2_Y380_YF]	0.425
SVVVPHEPPEV [TP53_Y220_Y220H]	0.46
CETMEYLESKQ [BTK_Y511_A508T]	0.677
VDEERYDIEAK [TNNI3_Y112]	0.724
TNGFTYGSSHQ [MANEA_Y331]	0.443
GADDSYFTVRS [ZAP70_Y492_A495V_YF]	0.968
GNFSGYDDAWD [POLR1C_Y36_YF]	0.461
QRKPSYNQLAS [BRCA2_Y71]	0.345
VTSLKYSTPPF [BRIP1_Y916_S919P_YF]	0.52

Target: Jak2 (UniProt O60674)
Sequence (O60674 whole entry, looked up): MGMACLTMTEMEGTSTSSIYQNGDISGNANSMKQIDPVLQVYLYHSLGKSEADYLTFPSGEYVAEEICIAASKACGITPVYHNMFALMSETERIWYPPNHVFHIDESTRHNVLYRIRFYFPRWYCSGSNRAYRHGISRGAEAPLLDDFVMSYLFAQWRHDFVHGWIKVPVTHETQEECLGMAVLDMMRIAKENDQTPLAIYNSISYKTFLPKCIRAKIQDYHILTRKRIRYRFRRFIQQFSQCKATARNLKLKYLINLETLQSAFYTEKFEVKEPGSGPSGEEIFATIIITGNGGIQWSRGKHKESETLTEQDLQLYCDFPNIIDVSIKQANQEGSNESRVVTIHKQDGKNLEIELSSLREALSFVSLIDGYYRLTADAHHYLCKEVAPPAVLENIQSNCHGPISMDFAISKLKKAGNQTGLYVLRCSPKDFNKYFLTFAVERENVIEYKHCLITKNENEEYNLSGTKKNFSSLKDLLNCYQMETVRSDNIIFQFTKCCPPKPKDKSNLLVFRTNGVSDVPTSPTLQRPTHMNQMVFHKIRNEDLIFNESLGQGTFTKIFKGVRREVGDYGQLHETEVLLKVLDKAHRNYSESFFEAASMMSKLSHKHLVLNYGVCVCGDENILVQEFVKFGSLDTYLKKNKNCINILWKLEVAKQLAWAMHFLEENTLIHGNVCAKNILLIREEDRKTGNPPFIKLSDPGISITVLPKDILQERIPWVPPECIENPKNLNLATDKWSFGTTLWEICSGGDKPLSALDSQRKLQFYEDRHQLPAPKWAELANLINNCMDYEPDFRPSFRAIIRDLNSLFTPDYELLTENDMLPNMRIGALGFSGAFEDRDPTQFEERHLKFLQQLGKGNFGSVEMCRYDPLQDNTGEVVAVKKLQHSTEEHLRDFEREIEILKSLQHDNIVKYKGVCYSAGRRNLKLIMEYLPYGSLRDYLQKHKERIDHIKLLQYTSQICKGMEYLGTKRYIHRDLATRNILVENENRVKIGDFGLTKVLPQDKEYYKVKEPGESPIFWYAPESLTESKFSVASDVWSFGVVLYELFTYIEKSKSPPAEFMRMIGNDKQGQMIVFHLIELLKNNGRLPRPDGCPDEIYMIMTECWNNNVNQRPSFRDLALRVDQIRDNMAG
Assay: as above

Sequence	phosphorylation enrichment
DDPRRYQKYGY [OAS1_Y362]	0.507
VAVVQYSGTGQ [COL6A1_Y878]	0.576
TVINKYQGKLF [HGD_Y249]	0.545
IEKLPYIDKWF [CPS1_Y872_T871P]	0.833
NRDNTYNPVSE [FGA_Y127_R129P]	0.699
QNTGVYYDLYG [PTPN11_Y62_D61V]	2.61
VKPENYRRPDI [VHL_Y175_L178P]	0.525
THEVRYISAGQ [SLCO4A1_Y77_V78I]	0.669
KLIMEYLPFGS [JAK2_Y931_YF]	0.965
ASMAKYYASGI [ACADSB_Y372_E376G]	0.604
NTEGGYRCICA [CRELD1_Y328]	0.869
GDEEDYEEIPG [EGFR_opt_E_2015]	1.36
NAPNSYGRRPI [CDKN2A_Y44]	0.76
EMTAEYACTRK [ACAD9_Y325]	0.499
VSRGRYRPEEC [B4GALT4_Y113_Q116E]	0.561
VIGRMYDFHVL [RPF2_Y109_YF]	0.804
VHNLDYYKMTT [FGFR3_Y647_K650M]	5.87
SREALYNETDP [CACNA1A_Y794_M797T]	1.14
LAAAGYDVKKN [H1-3_Y72_E75K]	0.381
ALEQKYWALGQ [MAP1A_Y1555]	0.886
TVDASYFGGRG [ANTXR2_Y380_YF]	0.677
SVVVPHEPPEV [TP53_Y220_Y220H]	0.755
CETMEYLESKQ [BTK_Y511_A508T]	1.43
VDEERYDIEAK [TNNI3_Y112]	1.12
TNGFTYGSSHQ [MANEA_Y331]	0.413
GADDSYFTVRS [ZAP70_Y492_A495V_YF]	1.73
GNFSGYDDAWD [POLR1C_Y36_YF]	1.28
QRKPSYNQLAS [BRCA2_Y71]	0.598
VTSLKYSTPPF [BRIP1_Y916_S919P_YF]	0.599

Target: MERTK (UniProt Q12866)
Sequence (Q12866 whole entry, looked up): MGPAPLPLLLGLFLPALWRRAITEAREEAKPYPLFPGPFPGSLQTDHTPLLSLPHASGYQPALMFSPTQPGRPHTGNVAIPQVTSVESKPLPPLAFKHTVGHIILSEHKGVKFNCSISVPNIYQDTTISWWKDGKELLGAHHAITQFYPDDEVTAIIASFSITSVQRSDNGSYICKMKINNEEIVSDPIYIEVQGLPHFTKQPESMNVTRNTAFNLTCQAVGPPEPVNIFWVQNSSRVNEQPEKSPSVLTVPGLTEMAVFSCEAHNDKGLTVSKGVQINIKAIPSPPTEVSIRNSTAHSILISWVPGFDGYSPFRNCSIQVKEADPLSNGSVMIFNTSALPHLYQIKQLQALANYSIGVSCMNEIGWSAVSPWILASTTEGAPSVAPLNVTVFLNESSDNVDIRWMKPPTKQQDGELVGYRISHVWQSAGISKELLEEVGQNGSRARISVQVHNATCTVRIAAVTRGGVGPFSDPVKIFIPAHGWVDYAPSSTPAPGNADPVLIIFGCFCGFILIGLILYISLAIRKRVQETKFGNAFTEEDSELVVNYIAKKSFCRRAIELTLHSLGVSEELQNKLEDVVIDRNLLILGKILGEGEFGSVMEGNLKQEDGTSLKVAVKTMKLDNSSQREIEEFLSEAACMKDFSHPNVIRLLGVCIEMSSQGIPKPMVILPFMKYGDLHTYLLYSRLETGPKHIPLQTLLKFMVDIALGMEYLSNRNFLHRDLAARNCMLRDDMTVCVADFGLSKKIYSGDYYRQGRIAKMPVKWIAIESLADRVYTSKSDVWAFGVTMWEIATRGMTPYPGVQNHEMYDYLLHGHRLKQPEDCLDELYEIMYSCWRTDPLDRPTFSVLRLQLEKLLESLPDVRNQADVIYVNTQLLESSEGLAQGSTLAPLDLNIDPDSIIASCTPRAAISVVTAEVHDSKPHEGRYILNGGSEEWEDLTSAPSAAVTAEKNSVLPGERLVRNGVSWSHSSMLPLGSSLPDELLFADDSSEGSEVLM
Assay: as above

Sequence	phosphorylation enrichment
DDPRRYQKYGY [OAS1_Y362]	0.368
VAVVQYSGTGQ [COL6A1_Y878]	0.412
TVINKYQGKLF [HGD_Y249]	0.398
IEKLPYIDKWF [CPS1_Y872_T871P]	0.359
NRDNTYNPVSE [FGA_Y127_R129P]	0.486
QNTGVYYDLYG [PTPN11_Y62_D61V]	10.9
VKPENYRRPDI [VHL_Y175_L178P]	0.371
THEVRYISAGQ [SLCO4A1_Y77_V78I]	0.408
KLIMEYLPFGS [JAK2_Y931_YF]	0.372
ASMAKYYASGI [ACADSB_Y372_E376G]	0.518
NTEGGYRCICA [CRELD1_Y328]	0.484
GDEEDYEEIPG [EGFR_opt_E_2015]	0.498
NAPNSYGRRPI [CDKN2A_Y44]	0.713
EMTAEYACTRK [ACAD9_Y325]	0.457
VSRGRYRPEEC [B4GALT4_Y113_Q116E]	0.614
VIGRMYDFHVL [RPF2_Y109_YF]	3.11
VHNLDYYKMTT [FGFR3_Y647_K650M]	0.492
SREALYNETDP [CACNA1A_Y794_M797T]	0.625
LAAAGYDVKKN [H1-3_Y72_E75K]	0.28
ALEQKYWALGQ [MAP1A_Y1555]	1.3
TVDASYFGGRG [ANTXR2_Y380_YF]	0.438
SVVVPHEPPEV [TP53_Y220_Y220H]	0.41
CETMEYLESKQ [BTK_Y511_A508T]	0.527
VDEERYDIEAK [TNNI3_Y112]	0.439
TNGFTYGSSHQ [MANEA_Y331]	0.441
GADDSYFTVRS [ZAP70_Y492_A495V_YF]	0.468
GNFSGYDDAWD [POLR1C_Y36_YF]	0.48
QRKPSYNQLAS [BRCA2_Y71]	0.392
VTSLKYSTPPF [BRIP1_Y916_S919P_YF]	0.457

System: c-Abl (mouse)
Assay: as above

Sequence	phosphorylation enrichment
DDPRRYQKYGY [OAS1_Y362]	0.592
VAVVQYSGTGQ [COL6A1_Y878]	0.592
TVINKYQGKLF [HGD_Y249]	0.513
IEKLPYIDKWF [CPS1_Y872_T871P]	0.574
NRDNTYNPVSE [FGA_Y127_R129P]	0.545
QNTGVYYDLYG [PTPN11_Y62_D61V]	1.23
VKPENYRRPDI [VHL_Y175_L178P]	0.63
THEVRYISAGQ [SLCO4A1_Y77_V78I]	0.838
KLIMEYLPFGS [JAK2_Y931_YF]	0.734
ASMAKYYASGI [ACADSB_Y372_E376G]	0.851
NTEGGYRCICA [CRELD1_Y328]	0.947
GDEEDYEEIPG [EGFR_opt_E_2015]	0.898
NAPNSYGRRPI [CDKN2A_Y44]	0.885
EMTAEYACTRK [ACAD9_Y325]	0.603
VSRGRYRPEEC [B4GALT4_Y113_Q116E]	0.568
VIGRMYDFHVL [RPF2_Y109_YF]	0.573
VHNLDYYKMTT [FGFR3_Y647_K650M]	0.433
SREALYNETDP [CACNA1A_Y794_M797T]	0.996
LAAAGYDVKKN [H1-3_Y72_E75K]	0.414
ALEQKYWALGQ [MAP1A_Y1555]	0.537
TVDASYFGGRG [ANTXR2_Y380_YF]	0.519
SVVVPHEPPEV [TP53_Y220_Y220H]	0.703
CETMEYLESKQ [BTK_Y511_A508T]	0.98
VDEERYDIEAK [TNNI3_Y112]	0.752
TNGFTYGSSHQ [MANEA_Y331]	0.412
GADDSYFTVRS [ZAP70_Y492_A495V_YF]	0.665
GNFSGYDDAWD [POLR1C_Y36_YF]	1.03
QRKPSYNQLAS [BRCA2_Y71]	0.471
VTSLKYSTPPF [BRIP1_Y916_S919P_YF]	0.595
